# Target: IL-37 expressed by splenocytes of IL-37 transgenic (IL-37tg) mice (human), Q9NZH6
# Test: cell-based or functional assay
# Chain of IL-37 expressed by splenocytes of IL-37 transgenic (IL-37tg) mice (human), Q9NZH6 (Q9NZH6 whole entry): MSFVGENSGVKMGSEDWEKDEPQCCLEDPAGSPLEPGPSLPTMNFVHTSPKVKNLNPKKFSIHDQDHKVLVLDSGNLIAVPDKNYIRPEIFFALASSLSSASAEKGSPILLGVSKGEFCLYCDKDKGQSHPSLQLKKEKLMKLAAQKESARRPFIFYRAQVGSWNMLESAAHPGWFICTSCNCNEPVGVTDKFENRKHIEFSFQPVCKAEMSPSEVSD
row,Binder,IL-6 abundance in supernatant of LPS-stimulated IL-37tg mouse splenocytes (ELISA)
1,"Antibody RF3 (antibody, V domains shown) VL: DVVMTQTPLSLPVSLGDQASISCRSSQSLVHSNGNTYLHWYLQKPGQSPKLLIYIVSNRFSGVPDRFGGSGSGTDFTLKISRVEAEDLGVYFCSQSTHIPYTFGGGTKLEMK VH: QVQLQQPGAELVRPGASVKLSCKASGYTFTNYWMNWWKQRPGQGLEWIGMIDPSDSETHYNQVFKDKATLTVDISSTTAYMHLSSLTSEDSAVYYCARDFGWGQGTLVTVSA",< 40%
2,"Antibody RF1 (antibody, V domains shown) VL: DVVMTQTPLSLPVSLGDQASMSCRSSQSLVHSNGDSYLHWYLQKPGQSPKLLIYKVSNRLSGVPDRFSGSGSGTDFTLKISRVEAEDLGIYFCSQSTHVPYTFGGGTKLEIK VH: QVQLQQPGAELVKPGASVKMSCKASGYTFTNYWLHWVMQRPGQGLEWIGMIDPSDSFTTYNQKFKGKATLTVDTSSSTAFMQLSSLTSEDSAVYYCTTVDHWGRGTTLTVSS",< 40%

# From US20190352390A1
